Results: patent US20260184782A1 (TWIST BIOSCIENCE, published 2026)

Target: T1, recombinant human TIGIT (human, UniProt Q495A1 22-141, limits assumed)
T1 construct: recombinant human TIGIT used in Carterra SPR; also called hTIGIT
T1 sequence (looked up): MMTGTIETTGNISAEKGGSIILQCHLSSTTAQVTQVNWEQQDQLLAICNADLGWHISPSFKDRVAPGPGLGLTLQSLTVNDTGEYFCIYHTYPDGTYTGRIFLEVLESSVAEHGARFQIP
Assay: SPR Carterra, average
Protocol: Binding affinities of VHH-Fc proteins to recombinant human TIGIT were measured by SPR using a Carterra instrument (Table 10A). […] Average values reported from measurements from 1-2 samples.

Binder	Kd [nM]	koff [s⁻¹]	kon [M⁻¹ s⁻¹]
TIGIT-SC9 (Fc fusion, VHH-Fc fusion in assay) VHH: EVQLVESGGGLVQPGGSLRLSCAASGNTFSGGFMGWFRQAPGKEREWVASVLRGGYTWYADSVKGRFTISADNSKNTAYLQMNSLKPEDTAVYYCVNGYSYGRDYWGQGTLVTVSS	9.35	0.00159	268000
TIGIT-SC7 (Fc fusion, VHH-Fc fusion in assay) VHH: EVQLVESGGGLVQPGGSLRLSCAASGRSFSMYVMGWFRQAPGKEREGVSFISGSDGSTLYADSVKGRFTISADNSKNTAYLQMNSLKPEDTAVYYCARGSIAARPVFFDYWGQGTLVTVSS	12.1	0.00372	306000
TIGIT-SC71 (Fc fusion, VHH-Fc fusion in assay) VHH: EVQLVESGGGLVQPGGSLRLSCAASGSIRSLNAMGWFRQAPGKEREFVAAINWDSARTYYADSVKGRFTISADNSKNTAYLQMNSLKPEDTAVYYCARWSAKRHSDTMTYYMDVWGQGTLVTVSS	10.5	0.00436	413000
TIGIT-SC208 (Fc fusion, VHH-Fc fusion in assay) VHH: EVQLVESGGGLVQPGGSLRLSCAASGFLFDSYVMGWFRQAPGKEREFVAAIWRSGTLKAYADSVKGRFTISADNSKNTEYLQMNSLKPEDTAVYYCARDDYGDTRRYFQHWGQGTLVTVSS	851	0.196	231000
TIGIT-SC209 (Fc fusion, VHH-Fc fusion in assay) VHH: EVQLVESGGGLVQPGGSLRLSCAASGFLFNSYWMGWFRQAPGKEREFVAAIWRSGTLKAYADSVKGRFTISADNSKNTEYLQMNSLKPEDTAVYYCARDDYGDYRIYFQHWGQGTLVTVSS	41.4	0.000625	15100
TIGIT-SC207 (Fc fusion, VHH-Fc fusion in assay) VHH: EVQLVESGGGLVQPGGSLRLSCAASGFAFSSYVMGWFRQAPGKEREFVAAIWRSGTLKAYADSVKGRFTISADNSKNTEYLQMNSLKPEDTAVYYCARDDYGDTRRYFQHWGQGTLVTVSS	12.2	0.00371	528000
TIGIT-SC74 (Fc fusion, VHH-Fc fusion in assay) VHH: EVQLVESGGGLVQPGGSLRLSCAASGRTFANNAMGWFRQAPGKEREFVAAINWSGGNTYYADSVKGRFTISADNSKNTAYLQMNSLKPEDTAVYYCAKWSYYGSGLYGMDVWGQGTLVTVSS	18	0.00329	183000
TIGIT-SC82 (Fc fusion, VHH-Fc fusion in assay) VHH: EVQLVESGGGLVQPGGSLRLSCAASGSMSSNYAMGWFRQAPGKEREFVAAIDWSGGNTYYADSVKGRFTISADNSKNTAYLQMNSLKPEDTAVYYCAKWFYYGSGLYTLDVWGQGTLVTVSS	57	0.00324	56700
TIGIT-SC75 (Fc fusion, VHH-Fc fusion in assay) VHH: EVQLVESGGGLVQPGGSLRLSCAASGFIGNYHAMGWFRQAPGKEREFVAAIRWSDGSSYYADSVKGRFTISADNSKNTAYLQMNSLKPEDTAVYYCAKWSYYGSGLYGMDVWGQGTLVTVSS	7.44	0.000376	50500
TIGIT-SC83 (Fc fusion, VHH-Fc fusion in assay) VHH: EVQLVESGGGLVQPGGSLRLSCAASGRTFSDDAMGWFRQAPGKEREFVAAISRSGGNTYYADSVKGRFTISADNSKNTAYLQMNSLKPEDTAVYYCAKWFYYGSGLYTLDVWGQGTLVTVSS	29.1	0.00378	132000
TIGIT-SC86 (Fc fusion, VHH-Fc fusion in assay) VHH: EVQLVESGGGLVQPGGSLRLSCAASGIIASDSAMGWFRQAPGKEREFVAAIRWSGKETWYADSVKGRFTISADNSKNTAYLQMNSLKPEDTAVYYCARWGGVTFGGVYPLEYWGQGTLVTVSS	7.14	0.00212	341000
TIGIT-SC88 (Fc fusion, VHH-Fc fusion in assay) VHH: EVQLVESGGGLVQPGGSLRLSCAASGFTFSSDWMGWFRQAPGKEREFVAAINRSGHSTSYADSVKGRFTISADNSKNTAYLQMNSLKPEDTAVYYCARWGGVTFGGVYPLEYWGQGTLVTVSS	22	0.00204	92500
TIGIT-SC103 (Fc fusion, VHH-Fc fusion in assay) VHH: EVQLVESGGGLVQPGGSLRLSCAASGTITSAVFMGWFRQAPGKEREFVAAISWSGGDTNYADSVKGRFTISADNSKNTAYLQMNSLKPEDTAVYYCARWGGITFGGVYPLDYWGQGTLVTVSS	34.3	0.00498	145000
TIGIT-SC106 (Fc fusion, VHH-Fc fusion in assay) VHH: EVQLVESGGGLVQPGGSLRLSCAASGFPFDDYAMGWFRQAPGKERELVAVIRWTGMSTHYADSVKGRFTISADNSKNTAYLQMNSLKPEDTAVYYCAKGIAVAGAFDYWGQGTLVTVSS	7.99	0.000753	95500
TIGIT-SC55 (Fc fusion, VHH-Fc fusion in assay) VHH: EVQLVESGGGLVQPGGSLRLSCAASGFPFDDYAMGWFRQAPGKERELVAVIRWTGMNTHYADSVKGRFTISADNSKNTAYLQMNSLKPEDTAVYYCAKGIAVAGAFDYWGQGTLVTVSS	28.5	0.00231	90600
TIGIT-SC76 (Fc fusion, VHH-Fc fusion in assay) VHH: EVQLVESGGGLVQPGGSLRLSCAASGFTFSDYAMGWFRQAPGKERELVARIGHDGSTDYADSVKGRFTISADNSKNTAYLQMNSLKPEDTAVYYCLGGLDPWGQGTLVTVSS	7.64	0.00717	938000
TIGIT-SC122 (Fc fusion, VHH-Fc fusion in assay) VHH: EVQLVESGGGLVQPGGSLRLSCAASGFSFDDYVMGWFRQAPGKEREFVAAISMSGGYTHYADSVKGRFTISADNSKNTAYLQMNSLKPEDTAVYYCAREGYYGSGSYLVYWGQGTLVTVSS	10.7	0.00217	524000
TIGIT-SC123 (Fc fusion, VHH-Fc fusion in assay) VHH: EVQLVESGGGLVQPGGSLRLSCAASGSIFSGNTMGWFRQAPGKEREFVAAISWSGAYTEYADSVKGRFTISADNSKNTAYLQMNSLKPEDTAVYYCAREGYYGSGSYLVYWGQGTLVTVSS	47.3	0.00232	49100
TIGIT-SC69 (Fc fusion, VHH-Fc fusion in assay) VHH: EVQLVESGGGLVQPGGSLRLSCAASGGTFNGRAMGWFRQAPGKEREFVAAISSIGDTYYADSVKGRFTISADNSKNTAYLQMNSLKPEDTAVYYCARWRLDRRQGFYYAMDVWGQGTLVTVSS	12.6	0.00276	219000
TIGIT-SC40 (Fc fusion, VHH-Fc fusion in assay) VHH: EVQLVESGGGLVQPGGSLRLSCAASGFSFDRWAMGWFRQAPGKERELVARISWNGGSTYYADSVKGRFTISADNSKNTAYLQMNSLKPEDTAVYYCARDDGWLQFMHWGQGTLVTVSS	11.4	0.0015	137000
TIGIT-SC43 (Fc fusion, VHH-Fc fusion in assay) VHH: EVQLVESGGGLVQPGGSLRLSCAASGFTFADYAMGWFRQAPGKEREMVAAIGWNSGTTEYADSVKGRFTISADNSKNTAYLQMNSLKPEDTAVYYCARDTNGWFFDFWGQGTLVTVSS	12	0.0013	112000
TIGIT-SC92 (Fc fusion, VHH-Fc fusion in assay) VHH: EVQLVESGGGLVQPGGSLRLSCAASGSTIENYAMGWFRQAPGKEREFVAAIDWSGGSTYYADSVKGRFTISADNSKNTAYLQMNSLKPEDTAVYYCARWRSIWSGYDDYYYMDVWGQGTLVTVSS	105	0.00289	27500
TIGIT-SC93 (Fc fusion, VHH-Fc fusion in assay) VHH: EVQLVESGGGLVQPGGSLRLSCAASSRTVSSHAMGWFRQAPGKEREFVAAISWSGVTTYYADSVKGRFTISADNSKNTAYLQMNSLKPEDTAVYYCARWRSIWSGYDDYYYMDVWGQGTLVTVSS	49.9	0.00407	81500
TIGIT-SC91 (Fc fusion, VHH-Fc fusion in assay) VHH: EVQLVESGGGLVQPGGSLRLSCAASGFTFSNYAMGWFRQAPGKEREFVAAINWNSRSTYYADSVKGRFTISADNSKNTAYLQMNSLKPEDTAVYYCARWRSIWSGYDDYYYMDVWGQGTLVTVSS	5.42	0.0071	1.31e+06
TIGIT-SC70 (Fc fusion, VHH-Fc fusion in assay) VHH: EVQLVESGGGLVQPGGSLRLSCAASGRTFSSFAMGWFRQAPGKEREFVAAISGSGEDTYYADSVKGRFTISADNSKNTAYLQMNSLKPEDTAVYYCARWRLDRRQGFYYAMDVWGQGTLVTVSS	11.2	0.00359	321000
TIGIT-SC33 (Fc fusion, VHH-Fc fusion in assay) VHH: EVQLVESGGGLVQPGGSLRLSCAASGFLFDSYAMGWFRQAPGKEREFVAAVSQSGLLTFYADSVKGRFTISADNSKNTAYLQMNSLKPEDTAVYYCASRTSSWWWFDPWGQGTLVTVSS	6.72	0.00107	182000
TIGIT-SC214 (Fc fusion, VHH-Fc fusion in assay) VHH: EVQLVESGGGLVQPGGSLRLSCAASGFTFGDSWMGWFRQAPGKEHEFVAAIWRSGTLKAYADSVKGRFTISADNSKNTAYLQMNSLKPEDTAVYYCTSYDAVAGTRDFWGQGTLVTVSS	6.13	0.0248	4.05e+06
TIGIT-SC4 (Fc fusion, VHH-Fc fusion in assay) VHH: EVQLVESGGGLVQPGGSLRLSCAASGSIDRINAMGWFRQATGKEREWVASVLRGGYTWYADSVKGRFTISADNSKNTAYLQMNSLKPEDTAVYYCARDSYSTSFWFDPWGQGTLVTVSS	6.24	0.00222	356000
